PMC9606215

What was measured:
[1] = target: complement C3b (UniProt P01024); assay: SPR; activated C3 convertase C3bBb formation: C3b amine-coupled to a CM5 chip; CFB flowed at 1.0-4.0 uM with complement factor D (1 mM [sic] CFD); 10 mM HEPES pH 7.4, 50 mM NaCl, 3 mM MgCl2, 0.005% surfactant P20; Biacore
[2] = target: complement C3b (UniProt P01024); assay: SPR; C3b amine-coupled to a CM5 chip; CFB as analyte at 1.0-4.0 μM in 10 mM HEPES pH 7.4, 50 mM NaCl, 3 mM MgCl2, 1 mM CFD, 0.005% surfactant P20 (activated C3 convertase C3bBb formation); two state interaction model
[3] = target: complement C3b (UniProt P01024); assay: SPR; proenzyme C3bB formation: C3b amine-coupled to a CM5 chip; CFB flowed at 0.125-4.0 uM, 30 ul/min; 10 mM HEPES pH 7.4, 50 mM NaCl, 3 mM MgCl2, 0.005% surfactant P20; without CFD; Biacore
[4] = target: complement C3b (UniProt P01024); assay: SPR; C3b amine-coupled to a CM5 chip; CFB flowed at 0.125-4.0 μM, 30 μl/min; 10 mM HEPES pH 7.4, 50 mM NaCl, 3 mM MgCl2, 0.005% surfactant P20; without CFD (proenzyme C3bB formation); two state interaction model

| koff [1] | kon [1] | Kd [2] | Kd [3] | koff [3] | kon [3] | Kd [4] | Substance |
| --- | --- | --- | --- | --- | --- | --- | --- |
| 0.00247 s⁻¹ | 32000 M⁻¹ s⁻¹ | 77.3 nM | 608 nM | 0.0088 s⁻¹ | 14500 M⁻¹ s⁻¹ | 610 nM | complement factor B, wild type (32R) (from UniProt P00751 26-764) (natural protein) |
| 0.00236 s⁻¹ | 7420 M⁻¹ s⁻¹ | 318 nM | – | 0.015 s⁻¹ | 6700 M⁻¹ s⁻¹ | 2250 nM | complement factor B, R32W variant (32W) (from UniProt P00751 26-764) (natural protein) |
